Results reported in US20250289905A1 (MIRIMGENE, published 2025).

T1: pig-derived WARS1 recombinant protein (pig) (UniProt K9IVV5)
T1 sequence: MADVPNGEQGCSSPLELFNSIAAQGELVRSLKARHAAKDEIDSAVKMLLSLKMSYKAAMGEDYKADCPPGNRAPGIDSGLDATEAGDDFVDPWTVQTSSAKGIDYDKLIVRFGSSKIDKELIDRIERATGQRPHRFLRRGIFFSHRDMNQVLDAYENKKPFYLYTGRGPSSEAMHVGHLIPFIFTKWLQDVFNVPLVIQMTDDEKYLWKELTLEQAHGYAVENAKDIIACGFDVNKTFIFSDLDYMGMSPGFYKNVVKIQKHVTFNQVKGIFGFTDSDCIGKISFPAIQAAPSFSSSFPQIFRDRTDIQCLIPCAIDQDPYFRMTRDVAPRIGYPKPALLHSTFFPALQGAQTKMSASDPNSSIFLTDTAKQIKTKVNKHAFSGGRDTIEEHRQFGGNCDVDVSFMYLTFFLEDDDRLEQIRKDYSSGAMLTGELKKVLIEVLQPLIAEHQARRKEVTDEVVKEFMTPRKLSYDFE

T2: mouse-derived WARS1 recombinant protein (mouse, UniProt P32921 1-481, limits assumed)
T2 construct: Recombinant, His-tagged (detected with anti-His tag antibody); construct not described; In the western blot also secreted WARS1 from J774A.1 supernatant and mouse serum; also called mouse WARS1
T2 sequence (looked up): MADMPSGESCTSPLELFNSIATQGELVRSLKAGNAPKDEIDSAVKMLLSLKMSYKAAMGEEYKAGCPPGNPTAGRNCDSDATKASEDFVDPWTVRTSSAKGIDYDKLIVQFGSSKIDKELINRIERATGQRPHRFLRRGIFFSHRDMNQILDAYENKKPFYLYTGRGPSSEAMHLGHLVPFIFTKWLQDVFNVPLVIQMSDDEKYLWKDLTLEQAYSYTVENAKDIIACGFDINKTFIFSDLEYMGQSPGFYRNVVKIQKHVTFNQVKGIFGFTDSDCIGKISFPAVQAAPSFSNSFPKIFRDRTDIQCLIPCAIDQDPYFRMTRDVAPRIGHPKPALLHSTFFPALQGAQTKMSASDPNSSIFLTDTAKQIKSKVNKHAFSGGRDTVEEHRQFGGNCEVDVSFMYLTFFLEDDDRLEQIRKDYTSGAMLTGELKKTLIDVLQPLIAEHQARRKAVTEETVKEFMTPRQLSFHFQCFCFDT

T3: human WARS1 recombinant protein (human, UniProt P23381 2-471, limits assumed)
T3 construct: Recombinant protein, detected with an anti-His tag antibody; In the western blot also secreted WARS1 from THP-1 supernatant and human serum; also called human-derived WARS1 recombinant protein
T3 sequence: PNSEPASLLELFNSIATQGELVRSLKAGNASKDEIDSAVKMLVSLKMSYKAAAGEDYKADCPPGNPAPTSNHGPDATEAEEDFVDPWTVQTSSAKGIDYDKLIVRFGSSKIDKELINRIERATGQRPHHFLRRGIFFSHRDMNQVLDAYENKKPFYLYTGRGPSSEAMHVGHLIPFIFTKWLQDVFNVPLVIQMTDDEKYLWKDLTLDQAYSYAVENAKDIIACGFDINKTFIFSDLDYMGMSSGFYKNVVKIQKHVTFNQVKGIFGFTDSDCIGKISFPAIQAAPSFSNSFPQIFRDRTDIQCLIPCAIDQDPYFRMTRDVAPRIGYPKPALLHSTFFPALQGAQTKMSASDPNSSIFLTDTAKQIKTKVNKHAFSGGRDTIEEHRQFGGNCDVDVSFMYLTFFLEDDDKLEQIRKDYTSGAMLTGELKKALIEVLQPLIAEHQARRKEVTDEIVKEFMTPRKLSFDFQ

T4: rat-derived WARS1 recombinant protein (rat, UniProt Q6P7B0 1-481, limits assumed)
T4 construct: Recombinant, His-tagged (detected with anti-His tag antibody); construct not described; also called rat WARS1
T4 sequence (looked up): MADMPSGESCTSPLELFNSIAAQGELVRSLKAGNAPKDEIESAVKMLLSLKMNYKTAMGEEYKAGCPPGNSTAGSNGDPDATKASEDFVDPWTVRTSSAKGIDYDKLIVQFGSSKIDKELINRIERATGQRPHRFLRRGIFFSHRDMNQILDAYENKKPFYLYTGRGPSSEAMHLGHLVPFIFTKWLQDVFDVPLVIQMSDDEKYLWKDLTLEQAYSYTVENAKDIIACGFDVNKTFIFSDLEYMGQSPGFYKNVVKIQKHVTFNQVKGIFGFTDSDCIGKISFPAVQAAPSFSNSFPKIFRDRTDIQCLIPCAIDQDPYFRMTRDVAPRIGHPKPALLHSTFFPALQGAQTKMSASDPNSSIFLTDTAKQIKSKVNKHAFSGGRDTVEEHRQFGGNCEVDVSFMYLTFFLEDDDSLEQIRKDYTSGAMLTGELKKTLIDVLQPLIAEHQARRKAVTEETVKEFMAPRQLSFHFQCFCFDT


Tests used:
[1] = target: T1, pig-derived WARS1 recombinant protein (pig); experiment: direct ELISA
[2] = target: T2, mouse-derived WARS1 recombinant protein; experiment: direct ELISA
Experimental: (§1) Specifically, for direct ELISA, a 96-well plate (Maxisorp, Thermo Fisher) was coated with WARS1 having a 1 μg/ml concentration of a recombinant protein derived from human, marmoset (NHP), mouse, rat, and pig, and then blocked with PBS containing 1% BSA at room temperature for 1 hour. The GKB101 antibody or a variant antibody thereof was diluted in a concentration-dependent manner, added to each coated well, reacted at room temperature for 1 hour, and then washed four times with PBST (PBS+Tween20). Each well was treated and reacted for 1 hour with an antibody (anti-Human IgG, cell signaling) to which HRP is attached, and then washed with PBST. Lastly, after developing with a TMB substrate (BD), its absorbance was measured at 490 nm (NIVO) (FIGS. 4a to 5).

[3] = target: T3, human WARS1 recombinant protein; experiment: direct ELISA
Experimental: as §1

[4] = target: T4, rat-derived WARS1 recombinant protein; experiment: direct ELISA
Experimental: as §1

[5] = target: T3, human WARS1 recombinant protein; experiment: cell-based or functional assay
[6] = target: marmoset (NHP)-derived WARS1 recombinant protein (marmoset (NHP)) (UniProt U3CR73); experiment: direct ELISA
[7] = target: T3, human WARS1 recombinant protein; experiment: western blot; recombinant protein, THP-1 culture supernatant, human serum
Experimental: (§2) At this time, a WARS1 recombinant protein (human, mouse, pig, marmoset (NHP), or rat-derived), cell culture medium, and human or mouse serum were used as WARS1 protein samples. In particular, the cell culture medium was used by treating the human monocyte cell line, THP-1, or the mouse macrophage cell line, J774.1A, with LPS (lipopolysaccharide, 100 ng/ml) for 24 hours to induce an inflammatory response, and then the cell culture supernatant was obtained for use.
(§3) 30 μg of each of the WARS1 recombinant protein (human, mouse, pig, marmoset (NHP), or rat-derived), the cell supernatant obtained using the method above, and mouse or human serum was loaded onto 8% SDS-PAGE, then transferred to a PVDF membrane (Millipore). Afterwards, the membrane was reacted with 1 μg/ml of GKB101 or a variant antibody thereof for 1 hour each, then washed with TBST (TBS+Tween20) three times. Afterwards, it was reacted with a secondary antibody (anti-human IgG HRP, Millipore) for 1 hour, then washed with TBST three times to be treated with ECL (West® bright ECL, Advanta) to identify its protein expression (LAS-4000, Fujifilm).

[8] = target: T4, rat-derived WARS1 recombinant protein; experiment: western blot; recombinant protein
Experimental: as §2, §3

[9] = target: T2, mouse-derived WARS1 recombinant protein; experiment: western blot; recombinant protein, J774A.1 culture supernatant, mouse serum
Experimental: as §2, §3

| Kd [1] | Kd [2] | Kd [3] | Kd [4] | secretion of TNF-α in mouse macrophage J774A.1 cells [5] | Kd [6] | binding result [7] | binding result [8] | binding result [9] | Binder |
| --- | --- | --- | --- | --- | --- | --- | --- | --- | --- |
| – | ~1 pM | ~1 pM | ~1 pM | ≥ 40% | 1 pM | – | – | – | SHL/QLN (antibody, V domains shown, L-CDR2 and L-CDR3 variant of GKB101; also called SHL/QLN antibody) VH: EVQLLESGGGLVQPGGSLRLSCAASGFTFSSYDMSWVRQAPGKGLEWVSAISSGGSSIYYADSVKGRFTISRDNSKNTLYLQMNSLRAEDTAVYYCARDVAWDMLGDFDYWGQGTLVTVSS VL: QSVLTQPPSASGTPGQRVTISCTGSSSNIGSNYVYWYQQLPGTAPKLLIYANQLRPSGVPDRFSGSKSGTSASLAISGLRSEDEADYYCGAWDDSNSAYVFGGGTKLTVLT |
| – | ~1 pM | ~1 pM | ~1 pM | ≥ 40% | 1 pM | – | – | – | SHL/LLN (antibody, V domains shown, L-CDR2 and L-CDR3 variant of GKB101; also called SHL/LLN antibody) VH: EVQLLESGGGLVQPGGSLRLSCAASGFTFSSYDMSWVRQAPGKGLEWVSAISSGGSSIYYADSVKGRFTISRDNSKNTLYLQMNSLRAEDTAVYYCARDVAWDMLGDFDYWGQGTLVTVSS VL: QSVLTQPPSASGTPGQRVTISCTGSSSNIGSNYVYWYQQLPGTAPKLLIYANLLRPSGVPDRFSGSKSGTSASLAISGLRSEDEADYYCGAWDDSNSAYVFGGGTKLTVLT |
| 1000 pM | – | – | – | ≥ 40% | – | – | binds | binds | S53L (antibody, V domains shown, L-CDR2 variant of GKB101; also called S53L antibody) VH: EVQLLESGGGLVQPGGSLRLSCAASGFTFSSYDMSWVRQAPGKGLEWVSAISSGGSSIYYADSVKGRFTISRDNSKNTLYLQMNSLRAEDTAVYYCARDVAWDMLGDFDYWGQGTLVTVSS VL: QSVLTQPPSASGTPGQRVTISCTGSSSNIGSNYVYWYQQLPGTAPKLLIYANLHRPSGVPDRFSGSKSGTSASLAISGLRSEDEADYYCGAWDDSLSAYVFGGGTKLTVLT |

More lines, now with the values behind:

| Binder | Kd [1] | Kd [2] | Kd [3] | Kd [4] | secretion of TNF-α in mouse macrophage J774A.1 cells [5] | Kd [6] | binding result [7] | binding result [8] | binding result [9] |
| --- | --- | --- | --- | --- | --- | --- | --- | --- | --- |
| H54K (antibody, V domains shown, L-CDR2 variant of GKB101; also called H54K antibody; M105A) VH: EVQLLESGGGLVQPGGSLRLSCAASGFTFSSYDMSWVRQAPGKGLEWVSAISSGGSSIYYADSVKGRFTISRDNSKNTLYLQMNSLRAEDTAVYYCARDVAWDMLGDFDYWGQGTLVTVSS VL: QSVLTQPPSASGTPGQRVTISCTGSSSNIGSNYVYWYQQLPGTAPKLLIYANSKRPSGVPDRFSGSKSGTSASLAISGLRSEDEADYYCGAWDDSLSAYVFGGGTKLTVLT | 1000 pM | ~1 pM | ~1 pM | ~1 pM | ≥ 40% | – | – | – | – |
| SHL/ILN (antibody, V domains shown, L-CDR2 and L-CDR3 variant of GKB101; also called SHL/ILN antibody) VH: EVQLLESGGGLVQPGGSLRLSCAASGFTFSSYDMSWVRQAPGKGLEWVSAISSGGSSIYYADSVKGRFTISRDNSKNTLYLQMNSLRAEDTAVYYCARDVAWDMLGDFDYWGQGTLVTVSS VL: QSVLTQPPSASGTPGQRVTISCTGSSSNIGSNYVYWYQQLPGTAPKLLIYANILRPSGVPDRFSGSKSGTSASLAISGLRSEDEADYYCGAWDDSNSAYVFGGGTKLTVLT | – | ~1 pM | ~1 pM | ~1 pM | – | 1 pM | – | – | – |
| H54Q (antibody, V domains shown, L-CDR2 variant of GKB101; also called H54Q antibody) VH: EVQLLESGGGLVQPGGSLRLSCAASGFTFSSYDMSWVRQAPGKGLEWVSAISSGGSSIYYADSVKGRFTISRDNSKNTLYLQMNSLRAEDTAVYYCARDVAWDMLGDFDYWGQGTLVTVSS VL: QSVLTQPPSASGTPGQRVTISCTGSSSNIGSNYVYWYQQLPGTAPKLLIYANSQRPSGVPDRFSGSKSGTSASLAISGLRSEDEADYYCGAWDDSLSAYVFGGGTKLTVLT | 1000 pM | ~1 pM | – | ~1 pM | – | – | binds | – | – |
| S53V (antibody, V domains shown, L-CDR2 variant of GKB101; also called S53V antibody) VH: EVQLLESGGGLVQPGGSLRLSCAASGFTFSSYDMSWVRQAPGKGLEWVSAISSGGSSIYYADSVKGRFTISRDNSKNTLYLQMNSLRAEDTAVYYCARDVAWDMLGDFDYWGQGTLVTVSS VL: QSVLTQPPSASGTPGQRVTISCTGSSSNIGSNYVYWYQQLPGTAPKLLIYANVHRPSGVPDRFSGSKSGTSASLAISGLRSEDEADYYCGAWDDSLSAYVFGGGTKLTVLT | 1000 pM | ~1 pM | – | ~1 pM | – | – | binds | – | – |
| S53Q (antibody, V domains shown, L-CDR2 variant of GKB101; also called S53Q antibody) VH: EVQLLESGGGLVQPGGSLRLSCAASGFTFSSYDMSWVRQAPGKGLEWVSAISSGGSSIYYADSVKGRFTISRDNSKNTLYLQMNSLRAEDTAVYYCARDVAWDMLGDFDYWGQGTLVTVSS VL: QSVLTQPPSASGTPGQRVTISCTGSSSNIGSNYVYWYQQLPGTAPKLLIYANQHRPSGVPDRFSGSKSGTSASLAISGLRSEDEADYYCGAWDDSLSAYVFGGGTKLTVLT | 1000 pM | ~1 pM | ~1 pM | ~1 pM | ≥ 40% | – | – | – | – |
